From US20110262438A1 (Ablynx, published 2011)

B1: Mab 11G8 (R&D Systems) (antibody, V domains shown)
VH: EVKLVESGGDLVQPGGSLKLSCATSGFTFSDYYMFWVRQTPEKRLEWVAYITNGGDRSYYSDTVTGRFIISRDNAKNTLYLQMSRLKSEDTAMYYCARQGNWAAWFVYWGQGTLVTVSA
VL: DVLMTQTPLSLPVSLGDQASISCRSSHYIVHSDGNTYLEWYLQKPGQSPKLLIYKVSNRFSGVPDRFSGSGSGTDFTLKISRVEAEDLGIYYCFQGSHVPLTFGAGTKLELKR
B2: 07B11 with Tag-1 (VHH)
VHH: EVQLVESGGNLVQAGGSLGLSCAASVSISSIHIMGWYRQAPGKQRDLVATITSGGSTAYADSVKGRFTVSKDNAKNTVYLQMDSLKPEDTSVYYCAAEVRNGVFGKWNHYWGQGTQVTVSS
B3: 07B11 with Tag-2 (VHH)
VHH: B2 VHH
notes: Purified monovalent Nanobody from E. coli (pAX100); also called 707B11
B4: 07C3 with Tag-1 (VHH)
VHH: EVQLVESGGGLVQAGESLTLSCAASGRTLSAYIMGWFRQAPGKEREFVAGIWSGGYTHLADSAKGRFSISRDNAKNTVYLQMNGLKPEDTAVYYCAAGLRGRQYSNWGQGTQVTVSS
B5: 07C3 with Tag-2 (VHH)
VHH: B4 VHH
notes: Purified monovalent Nanobody from E. coli (pAX100); also called 7CXCR07C3
B6: 08A10 with Tag-1 (VHH)
VHH: EVQLVESGGGLVQAGGSLRLSCAASGSIFSIAAMGWYRQATGKQRELVATITDGGTTTYADSVKGRVTISRDRSANTVYLAMNNLKPDDTAVYYCYAYLRYTSRVPGDNYWGQGTQVTVSS
B7: 08A10 with Tag-2 (VHH)
VHH: B6 VHH
notes: Purified monovalent Nanobody from E. coli (pAX100)
B8: 08A5 with Tag-1 (VHH)
VHH: EVQLVESGGGLVQAGDSLRLSCAASGLTFSNYDMGWFRQAPGKEREFVGASWWSGGAPYYSDSVKGRFTISRDNAKNTVYLQANSLRPEDTAVYYCAAKRLRSFASGGSYDYWGQGTQVTVSS
B9: 08A5 with Tag-2 (VHH)
VHH: B8 VHH
notes: as for B7

How the values were obtained:
[1] = target: T1, Human CXCR7 (human, UniProt P25106 1-362); assay: competition FACS, 4 nM biotinylated SDF1 on HEK-hCXCR7 cells
T1 construct: also called hCXCR7; CXCR7-LP
Method: The potency of Nanobody 7CXCR07C3 and Mab 8F11 (Biolegend) to compete with SDF1 was evaluated in competition FACS with HEK-hCXCR7 cells. Cells were incubated simultaneously with 4 nM biotinylated SDF1 (R&D) and with diluted test molecules, for 2 h at 4° C. Binding of biotinylated SDF1 was detected using streptavidin-PE. Competition curves are depicted in FIG. 1.

[2] = target: T1, Human CXCR7; assay: displacement of 75 pM [125I]-CXCL12 from NIH3T3-hCXCR7 cells
Method: In order to assess the competition capacity, Nanobodies were evaluated in SDF1 ligand displacement assays using stable NIH3T3-hCXCR7 cells. 24 h after seeding the cells, the cells were pre-incubated for 1 h at 4° C. with a dilution series of purified monovalent Nanobodies and the corresponding C-terminal Tag-2 tagged fusion proteins to the human serum albumin binding Nanobody Alb8 (see Table B-4: SEQ ID NOs: 44 to 48 wherein the polypeptides are all C-terminal tagged with Tag-2). Also reference molecules Mab 8F11 (Biolegend), Mab 11G8 (R&D) and unlabelled SDF1 were included in the assay. Radiolabeled [¹²⁵I]-CXCL12 was diluted and added to the cells to reach a final concentration of 75 pM and cells were incubated for 3 h at 4° C. After incubation, cells were washed twice, lysed with RIPA buffer and the ¹²⁵I signal was measured. The competition of tested Nanobodies and 8F11 Mab is between 73 and 83%, relative to competition with unlabelled SDF1. This level of displacement correspond to a 100% blocking of the CXCR7 protein, as the remaining SDF-1 binding is believed not to be CXCR7 mediated, but due to the SDF-1 interaction with heparan sulfate proteoglycans. Fusion to the human serum albumin-binding Nanobody Alb8 has no significant effect on Ki values.

[3] = target: T1, Human CXCR7; assay: FACS, ratio of Hek293 hCXCR7 signal over control cells
Method: Clones representing distinct Nanobody B-cell lineages were tested as periplasmic extracts for their binding to cell surface exposed CXCR7. In this assay, 5-fold dilutions of periplasmic extract were incubated with Hek293 hCXCR7 and Hek293 wt cells. Binding of the Nanobodies was detected using mouse anti-myc (Serotec), followed by anti-mouse IgG-PE (Jackson Immununoresearch). Binding signals of selected Nanobody clones (mcf values and ratios of binding) are represented in Table B-8 and indicate that the Nanobodies do bind to cellular human CXCR7.

T1 sequence (P25106 whole entry): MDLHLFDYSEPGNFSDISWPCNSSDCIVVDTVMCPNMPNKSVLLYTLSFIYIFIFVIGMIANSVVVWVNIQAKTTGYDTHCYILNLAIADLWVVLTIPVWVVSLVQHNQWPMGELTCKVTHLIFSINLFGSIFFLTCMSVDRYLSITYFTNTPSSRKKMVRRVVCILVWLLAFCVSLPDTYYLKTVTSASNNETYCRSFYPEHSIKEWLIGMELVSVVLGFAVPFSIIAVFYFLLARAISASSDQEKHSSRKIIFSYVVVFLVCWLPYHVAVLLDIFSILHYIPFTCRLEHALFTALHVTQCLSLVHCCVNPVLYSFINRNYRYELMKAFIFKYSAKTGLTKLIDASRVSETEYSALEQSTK

| Molecule | competition (% relative to unlabelled SDF1) [1] | displacement (% relative to cold SDF1) [2] | Fod Hek CXCR7/CXCR4 [3] |
| --- | --- | --- | --- |
| Mab 8F11 (Biolegend) (antibody) | > 95% | 73% |  |
| B1 |  | 24% |  |
| B2 |  |  | 110 fold |
| B3 |  | 75% |  |
| B4 |  |  | 73.2 fold |
| B5 | > 95% | 78% |  |
| B6 |  |  | 85.1 fold |
| B7 |  | 75% |  |
| B8 |  |  | 60.1 fold |
| B9 |  | 77% |  |
